In article PMC3682517, “Engineering A-kinase Anchoring Protein (AKAP)-selective Regulatory Subunits of Protein Kinase A (PKA) through Structure-based Phage Selection*^([image sbox.jpg])” (The Journal of Biological Chemistry, 2013):
Values belong to the binder of their own block, whether it stands above or below them.

Tests used:
[1] = target: T1, wild-type RII(1–45) D/D domain fragment (UniProt P13861 1-45, biotinylated when used as AlphaScreen tracer (site not stated)); assay: AlphaScreen or HTRF; competition binding: biotinylated R subunit D/D domain 0.3 nM (tracer), GST-AKAP RII-binding region 3 nM (target), increasing untagged R subunit D/D domain; IC50 approximates Kd; 20 mM HEPES pH 7.2, 100 mM NaCl, 0.1% BSA; 1 h at 4 °C; one-site competition fit; conditions: both partners purified
T1 construct: PKA regulatory subunit RIIα, residues 1-45, docking and dimerization (D/D) domain; His6 tag is PreScission-cleavable; also called WT RII; RII D/D domain; not shown: V5, C-terminal, kept

[2] = target: T2, R_(Select)AKAP18(1–45) D/D domain fragment (UniProt P13861 2-46, Val-3 in R_(Select)AKAP18 | Leu-5 in R_(Select)AKAP18 | Asp-10 in each …, biotinylated when used as AlphaScreen tracer (site not stated)); assay: as above; conditions: both partners purified
T2 construct: PKA regulatory subunit RIIα, residues 1-45 (D/D domain), variant selected by phage display against AKAP18; changes at positions 3, 5, 10 and 14; not shown: V5, C-terminal, kept

- Kd [1]: 12.5 ± 1.8 nM
B1: GST-AKAP2 anchoring helix fragment (domain or fragment)
chain: GDSPLVDDPLEYQAGLLVQNAIQQAIAEQVDKAVSKTSRDGAEQQGPEATVEEAEAAAFG

- Kd [2]: 162 nM
- Kd [1]: 16.3 nM
B2: GST-AKAP18 anchoring helix fragment (domain or fragment)
chain: NGGEPDDAELVRLSKRLVENAVLKAVQQYLEETQNKNKPGEGSSVKTEAADQNGNDNENNRK
